Results from US7098310B1, “Heterodimers of retinoid X receptors (RXRS) and other steroid hormone receptors” (Ligand Pharmaceuticals, priority 1991, dated 2006).

T1: retinoid x receptor (RXRα) (human, UniProt P19793 1-462)
T1 construct: mature; In vitro translated full length receptor; 35S-labelled in the column and immunoprecipitation experiments
T1 sequence (looked up): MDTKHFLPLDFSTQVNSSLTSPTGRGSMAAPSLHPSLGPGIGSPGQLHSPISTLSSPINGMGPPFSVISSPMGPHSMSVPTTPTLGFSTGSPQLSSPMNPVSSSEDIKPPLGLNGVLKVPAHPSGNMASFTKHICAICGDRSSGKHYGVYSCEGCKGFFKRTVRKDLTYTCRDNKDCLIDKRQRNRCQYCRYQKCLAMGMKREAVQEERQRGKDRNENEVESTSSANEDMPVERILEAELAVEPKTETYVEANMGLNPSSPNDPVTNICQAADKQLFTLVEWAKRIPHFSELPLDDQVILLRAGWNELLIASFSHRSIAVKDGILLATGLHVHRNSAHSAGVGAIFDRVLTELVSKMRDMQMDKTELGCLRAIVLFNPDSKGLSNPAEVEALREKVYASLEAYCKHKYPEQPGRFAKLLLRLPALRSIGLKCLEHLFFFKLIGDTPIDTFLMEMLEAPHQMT

T2: FLAG-RXRα (human, UniProt P19793 1-462)
T2 construct: mature; in vitro translated; also called F-RXRα
T2 sequence: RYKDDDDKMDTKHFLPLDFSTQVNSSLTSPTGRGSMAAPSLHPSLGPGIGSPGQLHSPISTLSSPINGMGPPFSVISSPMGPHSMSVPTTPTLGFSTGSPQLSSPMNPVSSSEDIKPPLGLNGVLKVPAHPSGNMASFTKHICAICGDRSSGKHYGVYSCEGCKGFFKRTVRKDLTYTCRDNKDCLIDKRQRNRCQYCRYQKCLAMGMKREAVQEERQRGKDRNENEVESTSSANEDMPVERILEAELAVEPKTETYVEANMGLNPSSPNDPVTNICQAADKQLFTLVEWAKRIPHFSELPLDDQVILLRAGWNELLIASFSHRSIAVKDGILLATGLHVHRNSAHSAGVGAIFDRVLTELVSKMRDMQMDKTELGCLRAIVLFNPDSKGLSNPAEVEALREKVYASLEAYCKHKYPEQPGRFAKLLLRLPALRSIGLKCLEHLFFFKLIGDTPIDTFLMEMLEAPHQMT

T3: retinoic acid receptor RARα (UniProt P10276 1-462, limits assumed)
T3 construct: mature; In vitro translated
T3 sequence (looked up): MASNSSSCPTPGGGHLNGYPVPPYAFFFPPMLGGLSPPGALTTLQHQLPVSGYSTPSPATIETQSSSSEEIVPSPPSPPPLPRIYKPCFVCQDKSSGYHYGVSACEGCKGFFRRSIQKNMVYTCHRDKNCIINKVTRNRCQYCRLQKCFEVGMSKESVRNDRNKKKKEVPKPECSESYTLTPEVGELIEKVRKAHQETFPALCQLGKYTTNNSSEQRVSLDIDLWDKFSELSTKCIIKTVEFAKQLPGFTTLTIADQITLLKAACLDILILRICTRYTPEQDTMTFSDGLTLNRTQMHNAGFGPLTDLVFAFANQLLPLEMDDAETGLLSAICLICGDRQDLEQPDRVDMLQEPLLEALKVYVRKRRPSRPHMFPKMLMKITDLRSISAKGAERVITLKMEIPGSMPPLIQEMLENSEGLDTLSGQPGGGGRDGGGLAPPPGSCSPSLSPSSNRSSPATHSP

T4: retinoic acid receptor RARβ (UniProt P10826 1-455, limits assumed)
T4 construct: mature; In vitro translated
T4 sequence (looked up): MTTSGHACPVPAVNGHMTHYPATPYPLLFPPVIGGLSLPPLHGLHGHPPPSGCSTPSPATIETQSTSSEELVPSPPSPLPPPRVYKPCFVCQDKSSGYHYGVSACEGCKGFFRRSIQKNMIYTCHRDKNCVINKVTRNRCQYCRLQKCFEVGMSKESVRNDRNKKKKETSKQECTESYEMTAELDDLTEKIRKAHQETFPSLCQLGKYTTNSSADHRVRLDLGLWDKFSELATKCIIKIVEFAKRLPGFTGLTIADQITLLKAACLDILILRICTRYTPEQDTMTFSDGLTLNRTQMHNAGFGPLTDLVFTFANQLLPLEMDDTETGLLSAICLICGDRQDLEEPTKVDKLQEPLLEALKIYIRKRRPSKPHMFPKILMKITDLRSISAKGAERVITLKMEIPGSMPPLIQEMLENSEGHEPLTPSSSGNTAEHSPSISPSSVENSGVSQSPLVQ

T5: retinoic acid receptor RARγ (UniProt P13631 1-454, limits assumed)
T5 construct: mature; In vitro translated
T5 sequence (looked up): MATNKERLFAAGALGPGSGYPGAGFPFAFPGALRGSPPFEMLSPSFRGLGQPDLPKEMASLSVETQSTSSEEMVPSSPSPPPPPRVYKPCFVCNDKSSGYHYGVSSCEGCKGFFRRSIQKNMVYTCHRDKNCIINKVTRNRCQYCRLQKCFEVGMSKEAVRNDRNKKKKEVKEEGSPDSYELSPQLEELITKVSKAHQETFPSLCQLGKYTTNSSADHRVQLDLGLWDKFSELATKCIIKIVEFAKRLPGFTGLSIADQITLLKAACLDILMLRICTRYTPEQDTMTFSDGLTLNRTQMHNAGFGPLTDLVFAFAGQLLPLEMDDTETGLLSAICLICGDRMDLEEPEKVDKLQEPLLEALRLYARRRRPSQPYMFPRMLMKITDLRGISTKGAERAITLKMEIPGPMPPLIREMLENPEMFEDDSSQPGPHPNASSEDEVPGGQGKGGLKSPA

B1: thyroid hormone receptor TRβ (receptor, human, UniProt P10828 1-461, looked up)
chain: MTPNSMTENGLTAWDKPKHCPDREHDWKLVGMSEACLHRKSHSERRSTLKNEQSSPHLIQTTWTSSIFHLDHDDVNDQSVSSAQTFQTEEKKCKGYIPSYLDKDELCVVCGDKATGYHYRCITCEGCKGFFRRTIQKNLHPSYSCKYEGKCVIDKVTRNQCQECRFKKCIYVGMATDLVLDDSKRLAKRKLIEENREKRRREELQKSIGHKPEPTDEEWELIKTVTEAHVATNAQGSHWKQKRKFLPEDIGQAPIVNAPEGGKVDLEAFSHFTKIITPAITRVVDFAKKLPMFCELPCEDQIILLKGCCMEIMSLRAAVRYDPESETLTLNGEMAVTRGQLKNGGLGVVSDAIFDLGMSLSSFNLDDTEVALLQAVLLMSSDRPGLACVERIEKYQDSFLLAFEHYINYRKHHVTHFWPKLLMKVTDLRMIGACHASRFLHMKVECPTELFPPLFLEVFED
notes: mature; In vitro translated; also called TR-B; c-erb-A-B
B2: RXRαm2 (receptor, human, UniProt P19793 1-387, looked up)
chain: MDTKHFLPLDFSTQVNSSLTSPTGRGSMAAPSLHPSLGPGIGSPGQLHSPISTLSSPINGMGPPFSVISSPMGPHSMSVPTTPTLGFSTGSPQLSSPMNPVSSSEDIKPPLGLNGVLKVPAHPSGNMASFTKHICAICGDRSSGKHYGVYSCEGCKGFFKRTVRKDLTYTCRDNKDCLIDKRQRNRCQYCRYQKCLAMGMKREAVQEERQRGKDRNENEVESTSSANEDMPVERILEAELAVEPKTETYVEANMGLNPSSPNDPVTNICQAADKQLFTLVEWAKRIPHFSELPLDDQVILLRAGWNELLIASFSHRSIAVKDGILLATGLHVHRNSAHSAGVGAIFDRVLTELVSKMRDMQMDKTELGCLRAIVLFNPDSKGLSNPA
notes: range: lacks the carboxyterminal 75 amino acids; In vitro translated deletion mutant
B3: RXRαm7 (receptor, human, UniProt P19793 1-462, looked up)
chain: MDTKHFLPLDFSTQVNSSLTSPTGRGSMAAPSLHPSLGPGIGSPGQLHSPISTLSSPINGMGPPFSVISSPMGPHSMSVPTTPTLGFSTGSPQLSSPMNPVSSSEDIKPPLGLNGVLKVPAHPSGNMASFTKHICAICGDRSSGKHYGVYSCEGCKGFFKRTVRKDLTYTCRDNKDCLIDKRQRNRCQYCRYQKCLATGLHVHRNSAHSAGVGAIFDRVLTELVSKMRDMQMDKTELGCLRAIVLFNPDSKGLSNPAEVEALREKVYASLEAYCKHKYPEQPGRFAKLLLRLPALRSIGLKCLEHLFFFKLIGDTPIDTFLMEMLEAPHQMT
notes: In vitro translated deletion mutant
B4: RXRαm1 (receptor, human, UniProt P19793 1-402, looked up)
chain: MDTKHFLPLDFSTQVNSSLTSPTGRGSMAAPSLHPSLGPGIGSPGQLHSPISTLSSPINGMGPPFSVISSPMGPHSMSVPTTPTLGFSTGSPQLSSPMNPVSSSEDIKPPLGLNGVLKVPAHPSGNMASFTKHICAICGDRSSGKHYGVYSCEGCKGFFKRTVRKDLTYTCRDNKDCLIDKRQRNRCQYCRYQKCLAMGMKREAVQEERQRGKDRNENEVESTSSANEDMPVERILEAELAVEPKTETYVEANMGLNPSSPNDPVTNICQAADKQLFTLVEWAKRIPHFSELPLDDQVILLRAGWNELLIASFSHRSIAVKDGILLATGLHVHRNSAHSAGVGAIFDRVLTELVSKMRDMQMDKTELGCLRAIVLFNPDSKGLSNPAEVEALREKVYASLEA
notes: range: lacks the carboxyterminal 60 amino acids; In vitro translated deletion mutant

Assays:
[1] = system: RXRα-TRα and RXRα-RARα complexes; test: Gel retardation assay of RXRα interaction with TRα or RARα on palindromic TRE; format: binding
[2] = molecular target: T1, retinoid x receptor (RXRα); test: gel retardation, 32P palindromic TRE, in vitro translated receptors
Protocol: (§1) After incubation at room temperature for 45 minutes, the effect of antibody on slow migrating complexes was analyzed by gel retardation using ^32-labelled palindromic TRE as a probe. As a control, receptor mixtures were also incubated with preimmune serum (NI).
(§2) In vitro translated receptor protein (1 to 5 µl depending on the translation efficiency) was incubated with the ^32P-labeled oligonucleotides in a 20-µl reaction mixture containing 10 mM hepes buffer, pH 7.9, 50 mM KCl, 1 mM DTT, 2.5 mM MgCl, 10% glycerol, and 1 µg of poly(dI-dC) at 25° C. for 20 minutes. In general, relative low receptor concentration was used to obtain the clear effect of heterodimer formation. The reaction mixture was then loaded on a 5% nondenaturing polyacrylamide gel containing 0.5× TBE (1×TBE=0.089 M TRIS-borate, 0.089 M boric acid, and 0.002 M EDTA). […] When antibody was used, 1 µl of the antiserum was incubated with the specific translation products at room temperature for 45 minutes before performing the experiments described above.

FLAG-RXRα = molecular target: T2, FLAG-RXRα; test: as above
Protocol: as §1, §2

[3] = molecular target: B1; test: gel retardation, 32P palindromic TRE (data not shown)
[4] = molecular target: T3, retinoic acid receptor RARα; test: as above
[5] = molecular target: T4, retinoic acid receptor RARβ; test: as above
[6] = molecular target: T5, retinoic acid receptor RARγ; test: gel retardation, 32P palindromic TRE, in vitro translated receptors
Protocol: as §1, §2

Row | binding result [2] | binding result (FLAG-RXRα) | binding result [3] | binding result [4] | binding result [5] | binding result [6] | Molecule | effect on migration rate of the TRα complex ([1]; T3 10^−7 M) | influence of hormone on formation of slow migrating complexes ([1]; hormone 10^−7 M, TRα and RARα with RXRα)
1 | – | – | – | – | – | – | N[C@@H](Cc1cc(I)c(Oc2ccc(O)c(I)c2)c(I)c1)C(=O)O [T3] | slightly increases the migration rate | no clear influence
2 | binds | binds | – | – | – | – | B1 | – | –
3 | – | – | no binding | no binding | no binding | no binding | B2 | – | –
4 | – | – | no binding | no binding | no binding | no binding | B3 | – | –
5 | – | – | no binding | no binding | no binding | no binding | B4 | – | –
